# Experimental data taken from US20230399362A1 (B A I LABORATORIES, published 2023).
# Square brackets hold non-standard residues; d marks the D form.
# Target: T1, Human IL-13 with an Fc-tag (human, UniProt P35225 35-146, limits assumed)
# T1 construct: Immobilized on CM5 chip (about 5000 RU); also called Interleukin-13; not shown: Fc-tag
# Test: SPR, BIAcore 8K plus, human IL-13-Fc immobilized on CM5, peptide as analyte, 25 C
# T1 sequence (P35225 35-146 limits assumed): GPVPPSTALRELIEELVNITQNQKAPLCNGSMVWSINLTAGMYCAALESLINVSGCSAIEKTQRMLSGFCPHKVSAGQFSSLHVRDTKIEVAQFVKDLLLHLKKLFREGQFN
row,Kd,Binder
1,85.1 µM,cyclo(TR[dF]P[dL][dP]) (SMILES CC(C)C[C@H]1NC(=O)[C@@H]2CCCN2C(=O)[C@@H](Cc2ccccc2)NC(=O)[C@H](CCCNC(=N)N)NC(=O)[C@H]([C@@H](C)O)NC(=O)[C@H]2CCCN2C1=O) [Compound 7]
2,47.1 µM,cyclo(WVRE[dP][dP]) (SMILES CC(C)[C@@H]1NC(=O)[C@H](Cc2c[nH]c3ccccc23)NC(=O)[C@H]2CCCN2C(=O)[C@H]2CCCN2C(=O)[C@H](CCC(=O)O)NC(=O)[C@H](CCCNC(=N)N)NC1=O) [Compound 5]
3,368 µM,cyclo(RDYC[dP][dW][dP]) (SMILES N=C(N)NCCC[C@@H]1NC(=O)[C@H]2CCCN2C(=O)[C@@H](Cc2c[nH]c3ccccc23)NC(=O)[C@H]2CCCN2C(=O)[C@H](CS)NC(=O)[C@H](Cc2ccc(O)cc2)NC(=O)[C@H](CC(=O)O)NC1=O) [Compound 10]
4,99.5 µM,cyclo([dL]REPWMP) (SMILES CSCC[C@@H]1NC(=O)[C@H](Cc2c[nH]c3ccccc23)NC(=O)[C@@H]2CCCN2C(=O)[C@H](CCC(=O)O)NC(=O)[C@H](CCCNC(=N)N)NC(=O)[C@@H](CC(C)C)NC(=O)[C@@H]2CCCN2C1=O) [Compound 8]
5,55.4 µM,cyclo(YRE[dT][dV][dP]) (SMILES CC(C)[C@H]1NC(=O)[C@@H]([C@H](C)O)NC(=O)[C@H](CCC(=O)O)NC(=O)[C@H](CCCNC(=N)N)NC(=O)[C@H](Cc2ccc(O)cc2)NC(=O)[C@H]2CCCN2C1=O) [Compound 6]
6,337 µM,cyclo([dR]L[dW]W[dT]EP) (SMILES CC(C)C[C@@H]1NC(=O)[C@@H](CCCNC(=N)N)NC(=O)[C@@H]2CCCN2C(=O)[C@H](CCC(=O)O)NC(=O)[C@@H]([C@H](C)O)NC(=O)[C@H](Cc2c[nH]c3ccccc23)NC(=O)[C@@H](Cc2c[nH]c3ccccc23)NC1=O) [Compound 9]
7,26.2 µM,cyclo(RE[dV]W[dP][dP]) (SMILES CC(C)[C@H]1NC(=O)[C@H](CCC(=O)O)NC(=O)[C@H](CCCNC(=N)N)NC(=O)[C@H]2CCCN2C(=O)[C@H]2CCCN2C(=O)[C@H](Cc2c[nH]c3ccccc23)NC1=O) [Compound 4]
8,16 µM,cyclo([dR][dF][dV]YEP) (SMILES CC(C)[C@H]1NC(=O)[C@@H](Cc2ccccc2)NC(=O)[C@@H](CCCNC(=N)N)NC(=O)[C@@H]2CCCN2C(=O)[C@H](CCC(=O)O)NC(=O)[C@H](Cc2ccc(O)cc2)NC1=O) [Compound 1]
9,622 µM,cyclo(VP[dL][dW][dV]LRP) (SMILES CC(C)C[C@@H]1NC(=O)[C@@H](C(C)C)NC(=O)[C@@H](Cc2c[nH]c3ccccc23)NC(=O)[C@@H](CC(C)C)NC(=O)[C@@H]2CCCN2C(=O)[C@H](C(C)C)NC(=O)[C@@H]2CCCN2C(=O)[C@H](CCCNC(=N)N)NC1=O) [Compound 11]
10,17.4 µM,cyclo(RT[dV]E[dF][dP]) (SMILES CC(C)[C@H]1NC(=O)[C@H]([C@@H](C)O)NC(=O)[C@H](CCCNC(=N)N)NC(=O)[C@H]2CCCN2C(=O)[C@@H](Cc2ccccc2)NC(=O)[C@H](CCC(=O)O)NC1=O) [Compound 2]
11,22.8 µM,cyclo(E[dT][dV]W[dP][dP]) (SMILES CC(C)[C@H]1NC(=O)[C@@H]([C@H](C)O)NC(=O)[C@H](CCC(=O)O)NC(=O)[C@H]2CCCN2C(=O)[C@H]2CCCN2C(=O)[C@H](Cc2c[nH]c3ccccc23)NC1=O) [Compound 3]

# Target: T1, Human IL-13 with an Fc-tag
# Test: SPR, BIAcore 8K plus, human IL-13-Fc immobilized on CM5, positive control
row,Kd,Binder
1,0.000309 µM,"Tralokinumab (antibody, V domains shown) VH: QVQLVQSGAEVKKPGASVKVSCKASGYTFTNYGLSWVRQAPGQGLEWMGWISANNGDTNYGQEFQGRVTMTTDTSTSTAYMELRSLRSDDTAVYYCARDSSSSWARWFFDLWGRGTLVTVSS VL: SYVLTQPPSVSVAPGKTARITCGGNIIGSKLVHWYQQKPGQAPVLVIYDDGDRPSGIPERFSGSNSGNTATLTISRVEAGDEADYYCQVWDTGSDPVVFGGGTKLTVL"
